Source: article PMC10794413

Target: Hsp90 (hsp82 gene from Saccharomyces cerevisiae) with a C-terminal coiled-coil domain (Saccharomyces cerevisiae)

ATPase rate of Hsp90 with freely added Cdc37 and equimolar Ste11: Cdc37's reducing effect is abrogated: 1.1 ATP/min
B1: free Cdc37 with the S14E phosphomimic (natural protein)
chain: MAIDYSKWDKIELEDDSDVEVHPNVDKKSFIKWKQQSIHEQRFKRNQDIKNLETQVDMYSHLNKRVDRILSNLPESSLTDLPAVTKFLNANFDKMEKSKGENVDPEIATYNEMVEDLFEQLAKDLDKEGKDSKSPSLIRDAILKHRAKIDSVTVEAKKKLDELYKEKNAHISSEDIHTGFDSSFMNKQKGGAKPLEATPSEALSSAAESNILNKLAKSSVPQTFIDFKDDPMKLAKETEEFGKISINEYSKSQKFLLEHLPIISEQQKDALMMKAFEYQLHGDDKMTLQVIHQSELMAYIKEIYDMKKIPYLNPMELSNVINMFFEKVIFNKDKPMGKESFLRSVQEKFLHIQKRSKILQQEEMDESNAEGVETIQLKSLDDSTELEVNLPDFNSKDPEEMKKVKVFKTLIPEKMQEAIMTKNLDNINKVFEDIPIEEAEKLLEVFNDIDIIGIKAILENEKDFQSLKDQYEQDHEDATMENLSLNDRDGGGDNHEEVKHTADTVD
